Target: FLAG-tagged R2FasL (pFLAG-FlkFasL; FlkFasL with an N-terminal FLAG epitope tag) (mouse; human) (UniProt P35918)
Experiment: cell-based or functional assay

Chain of FLAG-tagged R2FasL (pFLAG-FlkFasL; FlkFasL with an N-terminal FLAG epitope tag) (mouse; human) (P35918 other isoform, or with tags, fused parts or gaps): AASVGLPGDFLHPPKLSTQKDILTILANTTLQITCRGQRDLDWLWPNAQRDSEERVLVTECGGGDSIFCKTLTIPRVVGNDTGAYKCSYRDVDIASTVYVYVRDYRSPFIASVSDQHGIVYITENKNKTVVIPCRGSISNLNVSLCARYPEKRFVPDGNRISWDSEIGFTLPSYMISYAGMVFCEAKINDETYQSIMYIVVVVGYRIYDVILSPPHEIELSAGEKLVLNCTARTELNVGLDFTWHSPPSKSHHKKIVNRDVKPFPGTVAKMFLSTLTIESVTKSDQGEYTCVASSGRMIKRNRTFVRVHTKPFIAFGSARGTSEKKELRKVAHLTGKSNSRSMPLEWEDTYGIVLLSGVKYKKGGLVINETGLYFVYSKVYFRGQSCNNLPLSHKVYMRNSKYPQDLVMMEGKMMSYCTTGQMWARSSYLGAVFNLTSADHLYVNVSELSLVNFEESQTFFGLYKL

“recombinant human VEGF-165 (from UniProt P15692 27-191) (ligand)” gave an ED50 (viability of Jurkat E6.1 cells, resazurin assay) of 0.02 to 0.2 nM.

Source: patent US20090214508A1
